Experiment: soluble on expression in E. coli; label from the status in PepcDB or PDB records

Soluble on expression in E. coli, not soluble:
MGSDKIHHHHHHMIDSIRVEGFRGLKELELSSLRRINVIVGRNNSGKSTLLEALSLFLGSSDPGTFGNVLHEILIWRGWYGIQTVDDLFYNGGDSFSISSTGKTLEALNSKHSLEFKLNGEPFYKIDRESIRRLASQAVLLARFSPKENFEFLTPLTFRRFGYAESLYSYAYERKVVKDSIKVLNEAYPEVEGFSPLLKEDNWVLYVETKYGVYPYYLMGEGFKSAMIISFLSSLLRDGVLLIDSAEAFHHPKSLKVMIQTLVRGSEKNNVQVFLTTHSLELLDLMLEMGRDGFVIYMKNVEGRIEVESIEFQRASELRESIGVDLRGF
MGSDKIHHHHHHMIEVSRFWRDPALPFVEARQVGDGRKVCYAAHSHESFSIGVITGGRSTYINSDQCVEVGAGTTVLMNPGVVHTCNPVAGEPWSYLMLFVDQPWLQAVGFTLPTQTWSRSPVLYRRLLQAFADLFDARLPDREARLAALFHELPGMLGGNASEGGEGNPRLDAAAAFIRAHRSDPLSLEDICGACGLSRSYLIRAFRQRFGLTPHGYLLDQRVQLARAQLRQGRSIAEVAQEAGFADQAHLQRAFKQHLAATPGHYRNAVASLGAPAGAVQALKDQVNRAGDQ
MGSDKIHHHHHHMIFASDLDQTLIYSRKSFRAHIEDNSIQLIETLDGKEISFITYKTITLLIKLQLHSYFIPVTTRTIEQFQRITLFQNEIIPEYAITSNGGNILHNGKQDVTWNKEIKKRISVECIERNDILKEFEQIAHKDWVISQKTADDLFHYCIIKRENIPYDELSSFTSWLDKQGWNHSLQGRKLYFVPKPINKWDAVQYIQEILQMDTIITAGDSLLDLCMLEKANYAFAPLHGELGATYNHLQPHIVKTDAIGIYAAEEIVSKSLQIIHSSSPTS
MGSDKIHHHHHHMIFVPNENNDPRVNLAIETYLLTEMPLDEPILLFYINEPSIIIGRNQNTIEEINKEYVDEHGIHVVRRLSGGGAVYHDHGNLNFSFIMPDDGNSFRDFAKVTQPIIQALHDLGVEGAELKGRNDLVINDMKFSGNAMYATNGRMFAHGTLMFDSDIDEVVNTLKVRKDKIESKGIKSVRSRVTNIKPFLSEDKQEMTTEEFRQEILLKIFGVDSIDQVKTYELTDQDWAAINKISEQYYRNWDWNYGKSPAFNLERRHRFPIGSIEMKMNVADGAIQEIKIFGDFFGLGEIKDVEDILTGVKYDKASLEEAIDQIDVKKYFGNIEKEDLLGLIY
MGSDKIHHHHHHMIGNRNSTSLEIAMTEIDDITGFIPQPGPIALVLGATGGVGGAVARALAGRGYHVRALHRDAARMAAKQKERQPALEPVLEWVQGDAMNRDDVIYAAKDASVILHGVNPPGYRNWGTLVLPMIDNTIAAARASGACILMPGTIYNYGPDAFPLLNEESPQHPRTVKGEIRVELERRLEQAAGEGVRVILVRAGDFFGPEAGNNWFAQGLITPGKPVTQVNLPGKPGVSHSWAYLPDVAETFIRLLERVPDMPAFARFHMQGHVDTDGYAMAQAIQRVSGSDSVRFKRFAWWMVPLLSPILPVFRELLEMRYLWREPIALDNRRLVEVLGEEPRTRLDVAVATTLKSLKCLQTSAVHPDGSRSMASETAPQ
MGSDKIHHHHHHMIHKLEMFIAVAREAHFGRAAESLGLTQPTLSTGIKQLEEMLGVQLIFRGSRYGGLTPEGQRALVWARQLVSDARTFRQEMRTARHGLSGIVRLAVIPTALTWAAHLSARFSAAHPNVRFSILSRTSAEILSMLENLEADAGLSYLDNEPLGRVTTEPLYRERHTVVAHRDSDIAMQDKVEWADLAGERLCLLTPNMQNRRIINEYFMAAGIAPEAQVESNSTVVLAAHVEAGDWITILPVDMARFLCGGKPHLVIREIEGTGMDHAVGLVAPYREPHTPVLNALISETRALAKAHA
MGSDKIHHHHHHMIILVGGEKGGSGKSCLAQNIAVFLTVECGASVIMVDCDPQRTTSDWIQARNNNGTLASINCVQLYGKIRNDLLSLEQHYDYVIVDCGGQDNLALRATMSVASHVLMPLRPKRRDLKTVSHMDDIVATCMMINPKMRASFVITQCPSLPNQANRIFEAKEVCKTYDINVLDAITYSRNIYDDSEESGLSVMETQPKGKAAEEIRSIACEMLQASSATEIRNRLAEKQMDKLRGNYGSGRSQEKLYAV
MGSDKIHHHHHHMIKELKTLIAVAREGTFAAAGDRIGLTQAAVSAQMQRLEAQLGVELFDRKGRSAQLNRMGQQVLLQGQELVRLYGSLGNSATGSAPNVLVTIGAIASVQRSFLPDALALFHRQFPQCRTRVIPGLSMDLVNQVDAGEVDLAAIIRPPFSLHSDLRWTTLMREPYRLIVPADLQGEDWAELISSQPFIRYDRSSFGGRQVDRFLRQTHVSLREVCELDELDAIVKLVANGVGVALVPETATIQAWPAGVRAVNLGPHTFHRDIGLVHRARRSLTEPVNVLAQLLTAQVQDTQ
MGSDKIHHHHHHMIKHHPHAELLQAHAQGELPLSMSMAVAAHCALCQECQNQIAKLTEQAAKLAFVSSSDDPVQHNASNEIDVVDNDPWQQMLSNIMALPESTMSEPYIESSVTVSHRNIRYQIPRVFRQHIALPWQQIGKVSRMRFDIDEKNTRASLLYIEALGEIPQHTHKGFELTLLLSGEFSDSTGNYVVGDFIILDGNTQHSPTTQTGCLCYTVLDAPLYFTKGISKLLNPIGELIY
MGSDKIHHHHHHMIKSKLKGFAAVTVACLAVTACGSDSNNEDGTDQNATYVQFYNASAGSTATALKVADKTYESVIYGDTMPRFTSTAGVSAIEVMAKDASDKDISIYKEDIDLKVATDHFFVLHGDFAEPKLLNINYSRTELDKLNEVAENSKMQLLIANTAVHAQAFDAYVSKSTQTFADAVMLGSVAYGEASQPQVMDTGEYKVYLTPAGTTNVSYTTANIKFSAKVPYKLIIREGFGASDSKITLDSVDSTTNVRNHVALEASVDYRVFNGLGSHIIDVKVASSKQETLFSEVPSFGVTAYQGAEFNDFGVSVFDHGTQNKLLDNVLITLNQDDIKTIFIYEQATEQGSQVKAMEMKQTQTPSPYSFKFDIVSFADKSNLTVYFLKANDTIETAVNKITAVNPASPQSVTVPAGEYSIKVIAVENGTKTVVYASDLMDFSNEDNVTMVLNKDPATSFGYNLIKI
MGSDKIHHHHHHMINQAKIEHSGLVDDFIGLYQALNKDNLHLLAEVYDDNICFIDPMHQVNGLNALTQYFAKLYQNIGYIHFEIKEVLQDDTQASLFWQMQYRHPKLNKGEVVRVDGMSQLKFHQRIYFHRDYFDLGQMLYEHLPCMGGLIRLLKDRAAK
MGSDKIHHHHHHMIRLSNENTIFFMDKENVPIASCQSGDTVIFETKDCFSDQITNEEQALTSIDFNRVNPATGPLYVEGARRGDMLEIEILDIKVGKQGVMTAAPGLGALGESLNSPTTKLFPIEGDDVVYSTGLRLPLQPMIGVIGTAPPGEPINNGTPGPHGGNLDTKDIKPGTTVYLPVEVDGALLALGDLHAAMGDGEILICGVEIAGTVTLKVNVKKERMFPLPALKTDTHFMTIASAETLDAAAVQATKNMATFLANRTALSIEEAGMLLSGAGDLYVSQIVNPLKTARFSLALHYFEKLGVDLCN
MGSDKIHHHHHHMIRMNISVRNLKEITDLLSTIVSEAKFKVDENGMSVTAVDPAHVAMIRLEVPKEVFSEFRSDGTEEIALDIDRLKSVIRLANSSENVGITKDKEKLKFDLGNISKSVSLLDPSTIVTPKIPNIASEYYAIIKRSDFERGLRAAEDISDSIRFVLSSEGFRATSHSESEESEMVLPKDMLSDLSCSDTIKSSYPLEYLLKFIKAVSSADSLKISFRDDYPLSIEFYLDQNPSAKIKGLFLLAPRMEQ
MGSDKIHHHHHHMIRSLWIAKTGLDAQQTQMDVISNNLANVSTNGFKRGRAVFEDLMYQNIRQPGALSSDQTTLPSGLQLGTGVRPVATERIHTQGNPQQTGNSKDVAIIGQGFFQVAMPDGTTAYTRDGSFQVDQNGQLVTSSGFVIQPAITIPANTTSMTVARDGTVSVTQPGSSNNVQVGQLQLATFMNPAGLESMGENLYVQTDASGAPNTTVPGLNGAGVLQQNYVEASNVNVVEELVSMIQTQRAYEINSKAVQTSDQMLQRLTQMG
MGSDKIHHHHHHMISDHDGEFGSQNVRAALPSLMALRCFEAAARHEHFSRAADELHLTHGAVSRAVRLLEDDLGVALFERRSRRVFLTDAGRKLAQAVHDGLHLMRQAAHELRTDAARAQRWVLSCEPTLLMRWLIPRWPDFQATYPRVDIHLAAAGGPFSFDHGIDIAIRRNDFAWPAGYHAERLFTERVGPVCRPDRVDTWFSGGRDDRALKRGAPRLHTRTRPDAWKEWAAAAHQPAGSGRGQMFDHFYFSLQAAVAGLGVAIGPWHLVRDDLESEVLVAPMGFVQDGSHYCLLTPEPVKDGSAQSALLDWLRTMA
MGSDKIHHHHHHMISHKKDQAAGLRELTALEPNAGVRVFAVVGGRTGVGKTSSVINLAVALAKTGKRVLILDENPRHKDVNANLGLSARYDLLHVINQDKTLEQVMTQGPEDVLVLTAMRGIHSLAKLSSADQERLIQCFSELSQTVDVVLIDTAIGRTSRVVPLSLASQQVLIVLSASGKAITDAYALIKLISQEYARRDFLVLVNKVESESMGRDIFENIAGVAQKHLAVKLEWMGCILFDEKLQRSTRLCQPVVEIFPTSASAAGYRQLAEKLMRCAGPWTDNDGVENFMRRLIRTSHLDIADFTV
MGSDKIHHHHHHMISKLAEIVGEEWVISGDEAKLYSYPAFIPLKIEPPVVVLPGSEEEVISLVNFLNENNIKYIVRGSGTSLSGATTPTQGEVVISLTRLNRIYSLDNFEITVGPGLANFLINKTLGNSNLFYAPDPSSYVVSSIGGNISHDSGGMHTPKYGTTFDSIIRLKVLLSNGHVEEIGSSNFFDPTSIFVGAEGTLGVILRATLRLFPKPEVSKTILASFNSIDDAGKAVVSVYKAGVTPAAMEFLDKNSIIAIENTQYKANYPMAEAILLIELDGYSVNVEEEEVRVVSAIRNNNGEVFIPKDEEEKNRWWWGRKGAFPSFAYYSPAYLTLDANVPRSTLPTMLRFTYEISKKYGLPVANSFHAGDGTLHPLIGFDPKNADETIKAIKAAEEITKLAIKVGGVPSGEHGIGIEKIKFMKLYYSEDDLTLMRRLKATFDPKRLLNPCKLIPPAKNEICNTVNRIHTYLLEGDI
MGSDKIHHHHHHMISRTIQQLEDALGQQLFYRNTRAITPTESGKLFFEYAKRITEQFDEAQKALQDKTIEPSGLVRINAPVFFGQRHIAPWLAGLSERYPRLLIELIQTDEFIDPLRESTDLIFRIGALTDSSFHARIFGTQKYHLAASPQYVAKYGTLDHPTELNQHKCLVYKGFEGPNRWLVRKPNEEWVHYPITPLLSSNNAESLMTAALHSMGIVLFPDWLIGEALKKGDLIKLLPEYEVAIKSPPQHIAAIYPNVRHPPLNIRAVIDYFAEIYGDTPYWQN
MGSDKIHHHHHHMITNQKLKKSLEEIKNITSFDAILYSAKGKHLTGTVEEPEHSDIFVKEFIVSEEDVREKNDAIAFAVEIDSELEYVLVMFCPYTSENLVIGRMAVCQLRTLVLGESERYDRNNFIQNILLGNMLGSDIINRAKKLHIENRKRVVYVIDTGKNSNEIAVELAKNLADIRSGDFVVAMDEHNVVLVKDVEDIDSPKLQEKLSSIAGSLVDNLLAEAMIKVRVGYGNPTDVLPKITESYQEAKMALEVGRLFYVEKEIMAYDRLGIGRLIYQLPMSLCEMFIREVFGDEVPQILDDEEAMSTISKFFENNLNISETARQLYVHRNTLVYRLERIEKSIGLDIRTFDDAMIFKIATMVLAHIKDSRQGR
